Test results published in patent US20250296996A1 (BROADWING BIO, published 2025).
Positions count from the first letter of the chain named.

T1: P60 (huANGPTL7-Fibrinogen-his) (human, UniProt O43827 129-343)
T1 construct: also called human ANGPTL7 fibrinogen domain; not shown: C-terminal short linker and His tag
T1 sequence: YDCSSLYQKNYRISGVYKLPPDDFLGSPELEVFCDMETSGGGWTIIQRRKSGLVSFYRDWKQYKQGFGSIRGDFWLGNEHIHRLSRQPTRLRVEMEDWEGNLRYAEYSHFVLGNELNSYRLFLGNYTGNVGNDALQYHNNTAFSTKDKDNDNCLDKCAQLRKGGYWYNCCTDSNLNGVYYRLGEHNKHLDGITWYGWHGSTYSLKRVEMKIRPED

T2: P66 (rabbit ANGPTL7-his) (rabbit, UniProt G1T4P1 27-344)
T2 construct: mature; also called rabbit ANGPTL7 protein
T2 sequence: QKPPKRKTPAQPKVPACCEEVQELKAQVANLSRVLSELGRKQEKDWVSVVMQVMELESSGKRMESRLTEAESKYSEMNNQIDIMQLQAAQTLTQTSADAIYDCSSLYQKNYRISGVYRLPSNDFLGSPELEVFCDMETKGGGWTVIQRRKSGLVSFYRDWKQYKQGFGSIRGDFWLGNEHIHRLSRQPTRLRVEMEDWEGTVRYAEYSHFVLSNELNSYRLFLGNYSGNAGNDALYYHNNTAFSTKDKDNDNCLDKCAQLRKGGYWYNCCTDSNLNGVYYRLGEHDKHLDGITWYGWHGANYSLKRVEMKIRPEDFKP

T3: muANGPTL7-his (R&D Systems) (mouse, UniProt Q8R1Q3 22-337, limits assumed)
T3 construct: Bought protein; also called mouse ANGPTL7 protein
T3 sequence (looked up): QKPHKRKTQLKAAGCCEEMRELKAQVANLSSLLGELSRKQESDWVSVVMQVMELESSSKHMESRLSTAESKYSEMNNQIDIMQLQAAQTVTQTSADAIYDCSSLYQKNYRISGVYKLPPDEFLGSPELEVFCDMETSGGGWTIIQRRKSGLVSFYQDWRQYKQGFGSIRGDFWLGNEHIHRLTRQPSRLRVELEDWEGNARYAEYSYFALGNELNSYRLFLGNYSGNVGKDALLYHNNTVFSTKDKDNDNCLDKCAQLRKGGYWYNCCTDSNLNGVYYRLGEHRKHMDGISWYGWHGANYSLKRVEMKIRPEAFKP

T4: P62 (huANGPTL7-his) (human, UniProt O43827 27-346)
T4 construct: not shown: C-terminal short linker and His tag
T4 chain: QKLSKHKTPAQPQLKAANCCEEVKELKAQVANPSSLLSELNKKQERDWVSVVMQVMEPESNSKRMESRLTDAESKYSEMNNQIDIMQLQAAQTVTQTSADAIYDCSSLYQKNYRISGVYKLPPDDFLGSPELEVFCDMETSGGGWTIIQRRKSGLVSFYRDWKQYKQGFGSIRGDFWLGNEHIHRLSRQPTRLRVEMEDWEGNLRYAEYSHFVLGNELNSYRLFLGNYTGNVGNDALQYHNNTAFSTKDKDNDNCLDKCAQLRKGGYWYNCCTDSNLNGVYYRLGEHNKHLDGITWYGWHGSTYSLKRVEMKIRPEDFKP

T5: Pext-01 (huANGTPL7-FLAG multimer) (human, UniProt O43827 27-346)
T5 construct: also called PExt-1; human wild type ANGPTL7 multimer; not shown: FLAG tag
T5 sequence: T4 chain with P33L, P58L

B1: ATX-P-447 (antibody, human IgG1, kappa, N297A, V domains shown)
VH: EVQLVESGGGLVQPGGSLRLSCAASGFTISDYDMHWVRQTTGKGLEWVSGIDPDGDTYYPGSLKGRFTISRENAKNSLYLQMNSLRAGDTAVYYCTRGEDSSSSEDAFDIWGQGTMVTVSS
VL: not shown
notes: Full chains (VH + hIgG1-Agly-Fc)
B2: ATX-P-444 (antibody, human IgG1, kappa, N297A, V domains shown)
VH: B1 VH with I29L, D31V, T40V, T41S, L63V, A87V, T96L, D100E, S102N, A107G
VL: not shown
notes: as for B1
B3: ATX-P-446 (antibody, human IgG1, kappa, N297A, V domains shown)
VH: B1 VH with I29L, D31S, T40V, T41I, L63V, N73D, S101N
VL: not shown
notes: as for B1
B4: ATX-P-429 (antibody, human IgG1, kappa, N297A, V domains shown)
VH: QVQLVQSGAEVKKPGASVKVSCKASGYTFSSYGISWVRQAPGQGLEWMGWISAYNGNTNYAQNLRGRVAMTTDTSTTTAYMELRSLRSDDTAVYYCARVSLVWFGELPRGFDYWGQGTLVTVSS
VL: not shown
notes: as for B1
B5: ATX-P-433 (antibody, IgG1, V domains shown)
VH: EVQLVESGGGLVQPGRSLRLSCAASGFTFDDFAMHWVRQGPGKGLEWVSGIGWNSGSIGYADSVKGRFTISRDNAKNSLYLQMNSLRAEDTALYYCAKAPDYGDYYFDYWGQGTLVTVSS
VL: DIQMTQSPSSLSASVGDRVTITCRASQSISIYLNWYQQKPGTAPKLLIYAASSLQSGVPSRFSGSGSGTDFTLTISSLQPEDFAAYYCQQSYTTPLTFGGGTKVEIKR
notes: as for B1
B6: ATX-P-435 (antibody, human IgG1, kappa, N297A, V domains shown)
VH: QLQLQESGPGLVKPSETLSLTCTVSGGSISSSSSYWGWIRQPPGKGLEWIGSIYYSGSTYSNPSLKSRVTISVDTSKNQFSLKLSSVTAADTAVYYCARQYISGTEYFQYWGQGTLVTVSS
VL: EIVLTQSPATLSLSPGERATLSCRASQSVSNYLAWYQQKPGQAPRLLIYDASNRATGIPARFSGSGSGTDFTLTISSLEPEDFAVYYCQQRSNWPSFGQGTRLEIKR
notes: as for B1
B7: ATX-P-438 (antibody, human IgG1, kappa, N297A, V domains shown)
VH: QVQLVESGGGVVQPGRSLRLSCAASGFTFSSYGMHWVRQAPGKGLEWVAIISYDGNNKYYADSVKGRFTISRDNSKNTLYLQMNSLRDEDTAVYYCAKERGYSSSSGYYYYYMDVWGKGTTVTVSS
VL: EIVLTQSPGTLSLSPGERATLSCRASQSVSRSYLAWYQQKPGQAPRLLIIGASTRATGIPDRFSGSGSGTDFTLTISRLEPEDFAVYYCQQGQVIPPTFGQGTKVEIKR
notes: as for B1

Columns and labels:
[1] = target: T1, P60 (huANGPTL7-Fibrinogen-his); experiment: BLI Octet HTX; IgG on AHC sensor; P60 at 200 nM
Protocol: (§1) ANGPTL7 Antibody Kinetics. Experiments were conducted to determine the reactivity and dissociation constants (KD) of anti-ANGPTL7 antibodies with the human fibrinogen domain of the ANGPTL7 protein. Binding experiments were performed on Octet HTX (ForteBio) in 1×PBS, pH 7.4, 0.1 mg/ml BSA, 0.05% Sodium Azide, and 0.02 Tween 20. Antibodies at a concentration of 50 nM were loaded on pre-hydrated AHC biosensors for 5 min. The loaded sensors were dipped into monovalent P60 (huANGPTL7-Fibrinogen-his) at a concentration of 200 nM for 5 min association, followed by 10 min dissociation. […] Responses (nm) at the end of association were also determined (Table 2).

[2] = target: T1, P60 (huANGPTL7-Fibrinogen-his); experiment: BLI Octet HTX; IgG on AHC sensor; P60 at 200 nM; 1:1 fit
Protocol: as §1

[3] = target: T2, P66 (rabbit ANGPTL7-his); experiment: BLI Octet HTX; IgG on AHC sensor; P66 at 200 nM; 1:1 fit
Protocol: (§2) Experiments were also conducted to determine the reactivity and dissociation constants (KA) of anti-ANGPTL7 antibodies with the rabbit ANGPTL7 protein. Binding experiments were performed on Octet HTX (ForteBio) in Rx PBS, pH 7.4, 0.1 mg/mi BSA, 0.05% Sodium Azide, and 0.02% Tween 20. Antibodies at a concentration of 50 nM were loaded on pre-hydrated AHC biosensors for 5 min. The loaded sensors were dipped into monovalent P66 (rabbit ANGPTL7-his) at a concentration of 200 nM for 5 min of association, followed by 10 min of dissociation. […] Responses (nm) at the end of association were also determined (Table 6).

[4] = target: T3, muANGPTL7-his (R&D Systems); experiment: BLI Octet HTX; IgG on AHC sensor; muANGPTL7-his at 200 nM
Protocol: as §2, with “(KD)” for “(KA)”, “mouse” for “rabbit”, “1×PBS,” for “Rx PBS,”, “[…].” for “min.”, “muANGPTL7-his (R&D Systems)” for “P66 (rabbit ANGPTL7-his)”, “5).” for “6).”

[5] = target: T4, P62 (huANGPTL7-his); experiment: BLI Octet HTX; IgG on AHC sensor; P62 0.343-250 nM; global 1:1 fit
Protocol: Experiments were also conducted to determine the reactivity and dissociation constants (KD) of anti-ANGPTL7 antibodies with the human ANGPTL7-his protein. Binding experiments were performed on Octet HTX (ForteBio) in 1×PBS, pH 7.4, 0.1 mg/mi BSA, 0.05% Sodium Azide, and 0.02% Tween 20. To measure monovalent binding kinetics, antibodies at a concentration of 50 nM were loaded on pre-hydrated AHC biosensors for 5 min. The loaded sensors were dipped into monovalent P62 (huANGPTL7-his) at a range of concentration from 0.343-250 nM (a serial 3-fold dilution) for 5 min association, followed by 10 min dissociation.

[6] = target: T3, muANGPTL7-his (R&D Systems); experiment: BLI Octet HTX; IgG on AHC sensor; muANGPTL7-his at 200 nM; 1:1 fit
Protocol: as §2, with “(KD)” for “(KA)”, “mouse” for “rabbit”, “1×PBS,” for “Rx PBS,”, “[…].” for “min.”, “muANGPTL7-his (R&D Systems)” for “P66 (rabbit ANGPTL7-his)”, “5).” for “6).”

[7] = target: T5, Pext-01 (huANGTPL7-FLAG multimer); experiment: BLI Octet HTX; IgG on AHC sensor; Pext-01 at 100 nM; 1:1 fit; apparent KD
Protocol: Experiments were also conducted to determine the reactivity and dissociation constants (KD) of anti-ANGPTL7 antibodies with the human ANGPTL7 multimer protein. Binding experiments were performed on Octet HTX (ForteBio) in 1×PBS, pH 7.4, 0.1 mg/ml BSA, 0.05% Sodium Azide, and 0.02% Tween 20. Antibodies at a concentration of 50 nM were loaded on pre-hydrated AHC biosensors for 5 mi. The loaded sensors were dipped into Pext-01 (huANGTPL7-FLAG) at a concentration of 100 nM for 5 min of association, followed by 10 min of dissociation. […] Responses (nm) at the end of association were also determined (Table 7).

[8] = target: T2, P66 (rabbit ANGPTL7-his); experiment: BLI Octet HTX; IgG on AHC sensor; P66 at 200 nM
Protocol: as §2

| Binder | binding result [1] | Response [2] [nm] | Kd [3] [nM] | Response [3] [nm] | binding result [4] | binding result [5] | Response [6] [nm] | Response [7] [nm] | binding result [8] | Kd [2] [nM] | koff [2] [s⁻¹] | kon [2] [M⁻¹ s⁻¹] | koff [3] [s⁻¹] | kon [3] [M⁻¹ s⁻¹] | Kd [5] [nM] | koff [5] [s⁻¹] | kon [5] [M⁻¹ s⁻¹] | Kd [7] [nM] |
| --- | --- | --- | --- | --- | --- | --- | --- | --- | --- | --- | --- | --- | --- | --- | --- | --- | --- | --- |
| B1 | no binding (tested: 200 nM) | 0.08 | 3.33 | 0.65 | no binding (tested: 200 nM) | binds | 0.12 | 0.91 | – | – | – | – | – | – | – | – | – | – |
| B2 | no binding (tested: 200 nM) | 0.14 | – | – | no binding (tested: 200 nM) | – | 0.01 | 0.7 | – | – | – | – | – | – | – | – | – | – |
| B3 | no binding (tested: 200 nM) | 0.09 | 3.19 | 0.41 | no binding (tested: 200 nM) | – | 0.05 | 0.75 | – | – | – | – | – | – | – | – | – | – |
| B4 | – | 0.52 | – | 0.04 | no binding (tested: 200 nM) | – | 0 | 0.58 | no binding (tested: 200 nM) | 75.3 | – | – | – | – | – | – | – | – |
| B5 | – | 0.66 | 7.02 | 0.9 | – | – | – | 0.72 | – | 10.9 | 0.00243 | 223000 | 0.000727 | 104000 | 1.3 | 0.00056 | 431000 | – |
| B6 | – | 0.45 | – | 0.01 | no binding (tested: 200 nM) | – | 0.01 | 0.45 | no binding (tested: 200 nM) | 77 | – | – | – | – | – | – | – | – |
| B7 | no binding (tested: 200 nM) | 0.08 | 7.16 | 0.42 | no binding (tested: 200 nM) | – | 0.01 | 0.6 | – | – | – | – | – | – | – | – | – | 65.3 |
